From publication PMC12148439

Assays:
[1] = biological target: GacS649 (GacS residues 1-649 with C-terminal octa-histidine tag) (Pseudomonas aeruginosa); experiment: MST; GacS649 or CitAGacS649 labelled with AlexaFluor 488 at 80 nM, RetSHK titrated from 140 uM to 1.06 nM, 37 °C, 0.007% DDM, no citrate; apparent constants
[2] = biological target: CitAGacS649 (chimeric protein: GacS649 with its PDC domain replaced by the PDC domain of CitA from Klebsiella pneumoniae, C-terminal octa-histidine tag) (Pseudomonas aeruginosa | Klebsiella pneumoniae) (UniProt P52687); experiment: as above
[3] = biological target: CitAGacS649 (chimeric protein: GacS649 with its PDC domain replaced by the PDC domain of CitA from Klebsiella pneumoniae, C-terminal octa-histidine tag) (Pseudomonas aeruginosa | Klebsiella pneumoniae) (UniProt P52687); experiment: MST; CitAGacS649 labelled with AlexaFluor 488 at 80 nM, RetSHK titrated from 140 uM to 1.06 nM, 37 °C, 0.007% DDM, with 10 mM sodium citrate

B1: RetSHK (histidine kinase region of the sensor histidine kinase RetS, residues 413-649) (domain or fragment)
chain: QTKAEFLAKISHEIRTPMNGVLGMTELLLGTPLSAKQRDYVQTIHSAGNELLTLINEILDISKLESGQIELDEVQFDLNALIEDCLDIFRVKAEQQRIELISFTQPQVPRVIGGDPTRLRQVVLSLLDNAFKQTEEGEILLVVALDDQGETPRLRIAVQDSGHPFDAKEREALLTAELHSGDFLSASKLGSHLGLIIARQLVRLMGGEFGIQSGSSQGTTLSLTLPLDPQQLENPTA
Kd [1]: 10 µM | Kd [2]: 10 µM | fold decrease in affinity with 10 mM citrate against no citrate [3]: 5 fold
